Substrate in series [1]: NC(=O)c1cc(N2CC2)c([N+](=O)[O-])cc1[N+](=O)[O-]
In words: Activity against Escherichia coli nitroreductase.

Series [2] addresses Oxygen-insensitive NAD(P)H nitroreductase NfsB (Escherichia coli) (UniProt P38489). In words: Activity against Escherichia coli nitroreductase.

Among the data in ChEMBL document CHEMBL1138079 are Km values, retold here.

B1: Oxygen-insensitive NAD(P)H nitroreductase (Escherichia coli K-12), P38489 (protein)
chain: MDIISVALKRHSTKAFDASKKLTPEQAEQIKTLLQYSPSSTNSQPWHFIVASTEEGKARVAKSAAGNYVFNERKMLDASHVVVFCAKTAMDDVWLKLVVDQEDADGRFATPEAKAANDKGRKFFADMHRKDLHDDAEWMAKQVYLNVGNFLLGVAALGLDAVPIEGFDAAILDAEFGLKEKGYTSLVVVPVGHHSVEDFNATLPKSRLPQNITLTEV
For the protein B1, the figures for the Michaelis constant (Km) in series [1] and in series [2] were 881 µM and 195 µM, respectively.
